Test [1] deals with AEC2s. The test can be described thus: AEC2/AEC1 marker immunostaining of mouse organoids (maintenance and differentiation).
Description: Serum free medium contained 10 μM SB431542 (Abcam, Cambridge, UK), 3 μM CHIR99021 (Tocris, Bristol, UK), 1 μM BIRB796 (Tocris, Bristol, UK), 5 μg/ml Heparin (Sigma-Aldrich, St. Louis, Mo.), 50 ng/ml human EGF (Gibco), 10 ng/ml mouse FGF10 (R&D systems. Minneapolis, Minn.), 10 μM Y27632 (Selleckchem, Houston, Tex.), Insulin-Transferrin-Selenium (Thermo, Waltham, Mass.), 1% Glutamax (Thermo, Waltham, Mass.), 2% B27 (Thermo, Waltham, Mass.), 1% N2 (Thermo, Waltham, Mass.), 15 mM HEPES (Thermo, Waltham, Mass.), 1.25 mM N-acetylcysteine (Sigma-Aldrich, St. Louis, Mo.) and 1% Anti-Anti (Thermo, Waltham, Mass.) in Advanced DMEM/F12 (Thermo, Waltham, Mass.). For Alveo-Expansion medium, 10 ng/ml mouse IL-1b (BioLegend, San Diego, Calif.), 10 ng/ml mouse TNFa (BioLegend, San Diego, Calif.) were added into serum free medium. For Alveo-Maintenance medium, 10 ng/ml mouse Noggin (Peprotech, Rocky Hill, N.J.) and 1 μM DMH-1 (Tocris, Bristol, UK.) were added into Alveo-Expansion medium. Alveo-Differentiation medium contained ITS, Glutamax, 5 μg/ml Heparin, 5 ng/ml human EGF, 1 μg/ml mouse FGF10, 10% fetal bovine serum and 1% Anti-Anti in Advanced DMEM/F12.
For differentiation, mouse alveolospheres were cultured in AMM medium for 10 days were switched to AT2-differentiation medium followed by culture for an additional 7 days, except where stated otherwise. […]
In test [2] the test system is human alveolospheres. The test can be described thus: Human alveolosphere culture with human IL-1β. The settings on record: three donors, hIL-1β removed at day 7, cultured additional 7-15 days. The format is cell-based. The protocol:
For human alveolosphere culture, HTII-280^+ human AT2s (1-3×10^3) were resuspended in scrum free medium and mixed with an equal amount of Matrigel and plated in 6 well plates. For detailed mouse and human serum-free, feeder-free (SFFF) media composition, see Table 1 and Table 2.
The impact of human IL-1β was also tested in human alveolosphere culture. Human IL-1β was removed from medium containing human alveolospheres from three individual donors at day 7 and cultured for an additional 7-15 days (FIG. 7A).

Test [3] deals with AEC2s. The test can be described thus: Feeder-free (no fibroblasts) mouse AEC2 organoid culture in serum free medium: CFE and organoid size. The format is cell-based.

The values that follow come from patent publication US20220380734A1, “SYSTEMS AND METHODS FOR LUNG CELL EXPANSION AND DIFFERENTIATION” (DUKE UNIVERSITY, priority 2019, published 2022).

For “IL6: interleukin-6, 20 ng/mL supplement of serum-free differentiation medium”, the “expression of AEC1 markers including AGER” value in test [1] (mouse AEC2s, 10 days maintenance medium, then serum-free differentiation medium + IL6 20 ng/mL for 10 days) is reported as “strong expression”. For the molecule “Human IL-1β: human interleukin-1β tested in human alveolosphere culture”, the “organoid numbers and the size (growth rate)” value in test [2] was “significantly enhanced”.

B1: IL1β: mouse interleukin-1β, cytokine added to serum free medium (protein, UniProt P10749 118-269, looked up)
Interleukin-1 beta: VPIRQLHYRLRDEQQKSLVLSDPYELKALHLNGQNINQQVIFSMSFVQGEPSNDKIPVALGLKGKNLYLSCVMKDGTPTLQLESVDPKQYPKKKMEKRFVFNKIEVKSKVEFESAEFPNWYISTSQAEHKPVFLGNNSGQDIIDFTMESVSS
Turning to B1, the CFE was 19.85% in test [3] (IL1β removed from culture media on day-3, n=2); 20.35%±0.30% in test [3] (IL1β removed from culture media on day-5, n=3, average±SEM); 19.33%±0.84% in test [3] (IL1β removed from culture media on day-7, n=3, average±SEM); 20.91%±1.61% in test [3] (continuous IL1β supplementation, n=3, average±SEM).

B2: BMP4: BMP4 ligand (protein, UniProt P12644 293-408, looked up)
Bone morphogenetic protein 4: SPKHHSQRARKKNKNCRRHSLYVDFSDVGWNDWIVAPPGYQAFYCHGDCPFPLADHLNSTNHAIVQTLVNSVNSSIPKACCVPTELSAISMLYLDEYDKVVLKNYQEMVVEGCGCR
For the molecule B2, the “complete differentiation of AEC2 to AEC1 cells” value in test [1] (organoids treated with BMP4 ligand) is listed as “not observed”.
